Laboratory results published in the RNAGym collection of RNA variant scans (doi:10.1073/pnas.2313332121).
Fewer inactive variants are shown than the library holds.

B1: TPR 5TU (parent)
chain: GGAUCUUCUCGAUCUAACAAAAAAGACAAAUCUGCCACAAAGCUUGAGAGCAUCUUCGGAUGCAGAGGCGGCAGCCUUCGGUGGCGCGAUAGCGCCAACGUUCUCAACUAUGACACGCAAAACGCGUGCUCCGUUGAAUGGAGUUUAUCAUG

Variants of: B1
Experiment: polymerase ribozyme fitness, log enrichment relative to wild type (log ratio); higher = more active; in vitro selection for triplet polymerase activity
Method in brief: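 For each subunit of a heterodimeric triplet polymerase ribozyme, a mutant library was built by PCR and transcribed, then taken through a single in vitro selection round in triplicate. Selection involved annealing to a biotinylated primer, the partner subunit and triplets, incubation frozen at −7 °C, gel excision of extended constructs, capture on streptavidin beads and RT-PCR. Genotypes were retained after Illumina sequencing of inputs and outputs only with ≥10 input reads and ≥1 read in each output. Fitness is defined as the logarithm of a genotype's enrichment relative to wild-type enrichment, using inverse-variance-weighted averages across replicates, with the logarithm taken to base 2.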

| Variant | polymerase ribozyme fitness (log ratio) |
| --- | --- |
| G83A U101G A106U U145C | -2.55 |
| C85U G128U C131U | -2.93 |
| G25A C32A A40C C123A G124A A138C | ≤ -4.2 |
| C57U C85G A142C A150G | ≤ -4.2 |
| A41U A49C | -3.83 |
| G50A G141C | -1.77 |
| U44A C51U C76U C95A | ≤ -4.2 |
| C96G C108A C123G | -3.69 |
| G86C U104A | -2.46 |
| A24C C95A C96G U144C | ≤ -4.2 |
| C76A G83A | -2.85 |
| U4G A47U G58C C93G | -4 |
| C99G G126U | -0.93 |
| A19U A49C C69U U77G C79A G84A C99A A113C C114G A142C | ≤ -4.2 |
| A26C G88U G92U G117U | ≤ -4.2 |
| U7A A73G C87G C131A | ≤ -4.2 |
| A47G C54G | -0.785 |
| A16G G83U G92A C96U | ≤ -4.2 |
| A41C A49G U82A A91G | ≤ -4.2 |
| A16U A39C A49C C96U C125U | ≤ -4.2 |
| U53C U77C | ≤ -4.2 |

| Variant | polymerase ribozyme fitness (log ratio) |
| --- | --- |
| A39U A40U A91U C95G | ≤ -4.2 |
| U33A C57U C79G A89U A97G | ≤ -4.2 |
| G68A A106C A120G A138C | ≤ -4.2 |
| A41U C95U C99U G141C | -2.51 |
| U44C G59U G92A U135A | ≤ -4.2 |
| G71A C87A G92C | -3.04 |
| A28G G34A G83C C118G | ≤ -4.2 |
| U56G A60G C99U U102A | -2.07 |
| A22U A39U A41G A52C G83U G94A G152C | -4.02 |
| G94A G133C | -2.71 |
| C87G U111G | ≤ -4.2 |
| A21G A60G U78C A89U G92A G124U A137G G143U | ≤ -4.2 |
| G59A C123A | -0.0504 |
| A73G G83A | -1.72 |
| U33G G50A C93G G128A | ≤ -4.2 |
| C54U U77C G88A C96U A106C | ≤ -4.2 |
| A24G U31A U82C U101G | ≤ -4.2 |
| U90C C99U | ≤ -4.2 |
| U6A C85U | -0.519 |
| G59C C69A G133C | -1.75 |
| U15C G84U | -0.83 |

| Variant | polymerase ribozyme fitness (log ratio) |
| --- | --- |
| A12C U53A G58U C99G U151C | ≤ -4.2 |
| C87U A98G A106G | -1.08 |
| U6G C51U G84A U146G | -1.28 |
| C95A G140A | -2.71 |
| C14A C54U G83U C95U U111G U134G | ≤ -4.2 |
| U56G U82A A89G C95U G133C | -3.49 |
| C85G A97G A150U | -2.03 |
| A60G U139C G141C U144A | -4.04 |
| G83A G88U C125A G152U | ≤ -4.2 |
| G62C C123A | -1.69 |
| A28U A39C A98G G143U U144G U146G | ≤ -4.2 |
| A22G A40G A52C C75U C99A A107G C108U U134A | ≤ -4.2 |
| A20U A23G G50U G86A A110C C129G G140A | ≤ -4.2 |
| U45A C51A G84A | ≤ -4.2 |
| C5U A19G A23G G58U G81A G94C C116A C129U U135C U146G | ≤ -4.2 |
| A20C A21U A23C C51A C123A A138U | ≤ -4.2 |
| G50C C118G G140A | ≤ -4.2 |
| A22U U55A C96U | -0.172 |
| A29G U31A C43G | ≤ -4.2 |
| C129A G143A A150G | -3.66 |
| C87U A98C | -1.07 |

| Variant | polymerase ribozyme fitness (log ratio) |
| --- | --- |
| C5U U45G A119U | -0.808 |
| C38U A110U | -3.7 |
| A52G A137C | -3.28 |
| A20U A29U U55A A66C A106U A138U | ≤ -4.2 |
| C8A C27A C57G G92A | ≤ -4.2 |
| C5A A17U U45A G71C G84A A89U U104G U145G | ≤ -4.2 |
| C18A A19C C35A | -2.88 |
| C18A C35G A39U G84U G126A A150C | ≤ -4.2 |
| C69A G71U C85G C103U G117C | -3.28 |
| A60G C95U | -0.927 |
| A12G A91G A106G | -2.04 |
| C57A G80C A137C G143U | ≤ -4.2 |
| A30C U44G C108G U145G | ≤ -4.2 |
| A30G G46U G68U A147C | ≤ -4.2 |
| A40U G62A C95U U104C G133C | -3.3 |
| C93A G124A | -2.59 |
| A20U A89U | -2.12 |
| G50A U56A | -1.5 |
| A3U U7C U56A G58C A60C G70C G88A G94A A115U | ≤ -4.2 |
| C14G A30U U61A G92A C99A A115G | ≤ -4.2 |
| C38G G140C | -4.11 |
